Assay results published in the DeepSol protein solubility set.

assay: soluble on expression in E. coli; label from the status in PepcDB or PDB records

Sequence | soluble on expression in E. coli
MTQTLLAIENLSVGFRHQQTVRTVVNDVSLQIEAGETLALVGESGSGKSVTALSILRLLPSPPVEYLSGDIRFHGESLLHASDQTLRGVRGNKIAMIFQEPMVSLNPLHTLEKQLYEVLSLHRGMRREAARGEILNCLDRVGIRQAAKRLTDYPHQLSGGERQRVMIAMALLTRPELLIADEPTTALDVSVQAQILQLLRELQGELNMGMLFITHNLSIVRKLAHRVAVMQNGRCVEQNYAATLFASPTHPYTQKLLNSEPSGDPVPLPEPASTLLDVEQLQVAFPIRKGILKRIVDHNVVVKNISFTLRAGETLGLVGESGSGKSTTGLALLRLINSQGSIIFDGQPLQNLNRRQLLPIRHRIQVVFQDPNSSLNPRLNVLQIIEEGLRVHQPTLSAAQREQQVIAVMHEVGLDPETRHRYPAEFSGGQRQRIAIARALILKPSLIILDEPTSSLDKTVQAQILTLLKSLQQKHQLAYLFISHDLHVVRALCHQVIILRQGEVVEQGPCARVFATPQQEYTRQLLALS | not soluble
MKMKLAVLPGDGIGPEVMDAAIRVLKTVLDNDGHEAVFENALIGGAAIDEAGTPLPEETLDICRRSDAILLGAVGGPKWDHNPASLRPEKGLLGLRKEMGLFANLRPVKAYATLLNASPLKRERVENVDLVIVRELTGGLYFGRPSERRGPGENEVVDTLAYTREEIERIIEKAFQLAQIRRKKLASVDKANVLESSRMWREIAEETAKKYPDVELSHMLVDSTSMQLIANPGQFDVIVTENMFGDILSDEASVITGSLGMLPSASLRSDRFGMYEPVHGSAPDIAGQGKANPLGTVLSAALMLRYSFGLEKEAAAIEKAVDDVLQDGYCTGDLQVANGKVVSTIELTDRLIEKLNNSAAGPRIFQ | soluble
MSQVTRVYAGRLAGMIVRGPDTDAIGRVRDVIVNVRPNGQPSRVLGLVVEMMNNRKIFLPMLRVAAIEPQEITLVSGSVSLRAYKPRNGEVAIIADIVGSKVHIDDPELDHLHGRPVEVADIELERTRTRDWAISRVAVIGERPKFGRRPELFTCPWSHVHGISAGGVGITDAAAELIAEFEDMRPADIATVLYELPDAQRANVAKELDDDRLADVLQEMSEDRQAELIETLDIERAADVLEEMDPDDAADLLGELDDDKADVLLELMDPEESAPVRRLMSFSPDTVGALMTPEPLILSPQTTVAEALALARNPDLPTSLASIVFVVRPPTATPTGKYLGCVHLQKLLREPPSELVSGILDPDLPPLWASDSQETAARYFATYNLVCGPVVDNDNHLLGAVAVDDLLDHMLPDDWRDTGIRPDETPKEV | not soluble
MGSDKIHHHHHHVGYPRDFQLNYATLFSVSPLVIDWGSYSQIEAEMRLFQAAAPGKYAYYHLLSGLDLPLANQDEIHAFFAAHPGKEFITYSSQKNGAQLLARVQKYHFTHNFRQPNKAMRLFRKIEKAEQRVFPVRKKFAGTLAFGSNWVSLENDLVQVLLREDDRIRTMFARGFLVDELLVPTMLNIYPEFKDRIYYDRPVHDRPEEFQGSLRYINWWDGSPYVWREKDYETLLAARRQGHLFSRKFDAEVDKAIIDKIAGQLLEIK | not soluble
MNRTLYTLLFHLGLPLVALRLWWRARQAPAYAKRIGERFSLSLPEVPPGGIWVHAVSVGESIAAAPMVRALLERHPQLPVTVTCMTPTGSERIRALFGEQVRHCYLPYDLPWAAARFLDRVRPRLAVIMETELWPNHIHACAVRGIPVALANARLSERSARGYARFAGLTRPMLAELSWIAVQTEAEAERFRRLGARPECVSVTGSIKFDLRIDPQLPLAAAALREEWDATARPLWIAASTHAGEDEIVLAAHRRLLETRPDALLILVPRHPERFAGVHELCRREGFATVRRSGGEPVARATQVLLGDTMGELLFLYALADIAFVGGSLVPNGGHNLLEPAALGKPVFAGPHLFNFLDIAAQLRDAGALLEVTDAGELCDGLARLWAQPEVATAMATAGEKVLRNNQGALERLLAGLARLLGRGG | not soluble
MSLSAAEALTRIDRFVCDIKETQYGDGLHVFGAGDHGTGEIDGLIAALSARFVPPGPSGSPYRGRSDVRPTGRNLFTTDPRAVPSRAAYTQGVKLAEELLRKHLQDHGDWPKGLVMDMWGSATIRTAGEEFAMALHLAGLSPRWDDGSDRVSGFDILPLALLNRPRIDVTLRVSGLFRDMFPGLAQLFETAIAKLAERPETAADNPYLVQTPRVFGPRPGSYGLGIGTAMDDYSDEARTAAGEAWLAASSYAIDARGEITYARDALETQLTRADSFVHLQDLPETDLLMAEDYAAHEAGFAAAMQRLGKGGAAALYHLDATRPDQPRARTLTEELARVVRARAANPDWATGMMAHGFRGAAEIAATLDHLAAFAHLAGVVPDHLFDAMFDATLGRDDLVDFMQDANPQALAALRARFDALHRAGLWTSRRNSVLAELGTPAEGHHHHHH | soluble
MEFDKLYGPSNVENRLVQVKATTAEAIHFNRQIQPIIENRCVVCHGCYDAPCQLKMESRAGIERGANKAMVYNGERLLTANISASLTKLTELKRDNLEPLRQQGYFPVLNERQQTEQANTQSSLFYQMLQLKKQHPLPSEPILNESFDVALDRSQQCPTIEEFEQYKDKYPLGGMPYALPALSTTEHDQLTDWIARGAIMPDSVPPNAKEQQMINRWEKLLNGSSAKEQLIARYLFEHLYLANLYFDKAQSSYFKLVRSSSPSGEKVAVITTRRPFDSPYADGSTDAIVDKPQVYYRLIKHNDTIIAKRHMPYPFGESKLARISELFYQPDYPVTTLPDYQLANASNPFKTFQAIPDKARYQFLLDQAQFSIMNFIKGPVCRGQIALNVIEDNFWVFFLSPNNFDHYPSEQFIKANTELLQLPAGTSDKSLSLLYWRQYAKSQQEYVKNKLAYVEGLNLQPNQLNLDLIWSGKGNPNASLTVFRHFDSASVLQGFVGPTPKTAWLISYPLLERIHYLLVAGFDVYGSVSHQLKTRLYMDFLRMEAESNFISFLPKDERKAIHEYWYRETGDDIKDYIFSDGFYQLPETGMNYQSNKHQEELFQLVGQHTKNTNVSQFNLSSLAQSSADKIIANLSQLPNESVALLPQVSYVMVSNGDDNQVYSLINNSAHSNVAHLFSEENRRLPREDNLAILRGVVGTYPNAFFKVEQAQLSEFVSNLNAIKTEQDYRKLKDQFAIRRTNPKFWIFADELHAWYKTNQPKSAGLLDFNRLENRLEHHHHHH | not soluble
PAMADTIKLRIIETTDIHTNVMDYDYYKDQPSQQIGLSRAATLVKQAKSEVENSVLVDNGDLIQGSPMGDYMAAKGIQTGEVHPVYKAMNQLHYDVGNIGNHEFNYGLDFLQNTLAGANFPYINANVFDKKTGEHYFQPYLIKTHSFKDTDGEVHQVKVGYIGFVPPQIMVWDKKNLEGNVVAKDIKETAEKLIPQMKKEGADIIVAIPHSGVSTDPYKLGAENSVYYLTQVKGIDAIAFGHSHAVFPGKGFENLQGVDNNKGTINGVTAVMPGRWGSHVGVMDLVIEQKDGQWQVVEGQSEARPIFDKAAKKSLAEADQCIIRALEDDHKGTREFVNQ | not soluble
MGRHGKRGLNMTKQNSNTDRRSLQDCGVFSSAEYHSVGLSGGKDSSALLLLMLEKGMPIDSVIFADTGMDFPEMAAHIAKLDALLYRERGIHITTLRHPHGFEWLMFDEPKRKPSCLKNRARLGVPPYGNGWPGIKVRWCTGQLKTHLITKEVNRLKKEKNALHYIGIAADEAKRCKDAPNHRYPLVEWGVTEAQALQICYDRGFDFGGLYKIYHRASCWCCPLQRIGELRKLRQHHPELWARLWDMDNRARAQFGAGPLGQFKERWSIEQLDARFSREEKEERA | not soluble
MGSDKIHHHHHHMNAAENGLIPGAANSAGTKAYVARFAGTLADEHFSDFLNTRIKLSSLGVGTFPGGVDDVTDVAVAAIVARALQSGINVVDTGANYRLGRAGRAVGVGIAKAIAAGIQREEFFVVGKGGFLTFPDGRPEDPLTFFREEVAAKGLGKEEDLAQGVHCLSPEYIAWQLDTLRAQTGLGTLDVFLVDQPEVHIPLIGKEQMYRKLTDVFTMLEAAVQANKIRYYGISTFNACRVETDNTLFQSLTSLIGLAEKAAGQGNRHHLRVVQLPFNALMPEAYTRFSQVTGQGNIGSTIQAAFQLKLTIMASHPLGKGLLAREEVPSLQEAMPELADAAQRAIQFVRSTPGIGVTLVGLSTPLHLPDFLAVARQLPLSKERYLAMFEKEQ | not soluble
SAVFADLDLRAGSDLKALRGLVETAAHLGYSVVAINHIVDFKEKKQEIEKPVAVSELFTTLPIVQGKSRPIKILTRLTIIVSDPSHCNVLRATSSRARLYDVVAVFPKTEKLFHIACTHLDVDLVCITVTEKLPFYFKRPPINVAIDRGLAFELVYSPAIKDSTMRRYTISSALNLMQICKGKNVIISSAAERPLEIRGPYDVANLGLLFGLSESDAKAAVSTNCRAALLHGETRKTAFGIISTVKKPRPSEGDEDCLPASKKAKCEG | soluble
